T1: PRAME peptide on HLA-A*02:01 (human)
T1 peptide: SLLQHLIGL


Target: T1, PRAME peptide on HLA-A*02:01
Assay: multimer staining

| binding result | Binder |
| --- | --- |
| recognises | nwTCR-2970 (TCR, V domains shown) Valpha: QQPVQSPQAVILREGEDAVINCSSSKALYSVHWYRQKHGEAPVFLMILLKGGEQKGHDKISASFNEKKQQSSLYLTASQLSYSGTYFCGTEFRNDYKLSFGAGTTVTVRA Vbeta: EAQVTQNPRYLITVTGKKLTVTCSQNMNHEYMSWYRQDPGLGLRQIYYSMNVEVTDKGDVPEGYKVSRKEKRNFPLILESPSPNQTSLYFCASSPGTGGYGYTFGSGTRLTVV |
| recognises | nwTCR-3095 (TCR, V domains shown) Valpha: DQQVKQNSPSLSVQEGRISILNCDYTNSMFDYFLWYKKYPAEGPTFLISISSIKDKNEDGRFTVFLNKSAKHLSLHIVPSQPGDSAVYFCAAFASDSNYQLIWGAGTKLIIKP Vbeta: DTAVSQTPKYLVTQMGNDKSIKCEQNLGHDTMYWYKQDSKKFLKIMFSYNNKELIINETVPNRFSPKSPDKAHLNLHINSLELGDSAVYFCASSPWTSGGNGELFFGEGSRLTVL |
| recognises | nwTCR-3028 (TCR, V domains shown) Valpha: SQQGEEDPQALSIQEGENATMNCSYKTSINNLQWYRQNSGRGLVHLILIRSNEREKHSGRLRVTLDTSKKSSSLLITASRAADTASYFCATDVKSSYKLIFGSGTRLLVRP Vbeta: AAGVIQSPRHLIKEKRETATLKCYPIPRHDTVYWYQQGPGQDPQFLISFYEKMQSDKGSIPDRFSAQQFSDYHSELNMSSLELGDSALYFCASSLGLLGNEQFFGPGTRLTVL |
| recognises | nwTCR-2916 (TCR, V domains shown) Valpha: GQQLNQSPQSMFIQEGEDVSMNCTSSSIFNTWLWYKQDPGEGPVLLIALYKAGELTSNGRLTAQFGITRKDSFLNISASIPSDVGIYFCAGQDDGGSQGNLIFGKGTKLSVKP Vbeta: DSGVTQTPKHLITATGQRVTLRCSPRSGDLSVYWYQQSLDQGLQFLIQYYNGEERAKGNILERFSAQQFPDLHSELNLSSLELGDSALYFCASSPWTSGGDGELFFGEGSRLTVL |
| recognises | nwTCR-2793 (TCR, V domains shown) Valpha: QKEVEQNSGPLSVPEGAIASLNCTYSDRVSQSFFWYRQYSGKSPELIMSIYSNGDKEDGRFTAQLNKASQYVSLLIRDSQPSDSATYLCAVVSSNDYKLSFGAGTTVTVRA Vbeta: EAQVTQNPRYLITVTGKKLTVTCSQNMNHEYMSWYRQDPGLGLRQIYYSMNVEVTDKGDVPEGYKVSRKEKRNFPLILESPSPNQTSLYFCASSPGTIGELFFGEGSRLTVL |
| recognises | nwTCR-2915 (TCR, V domains shown) Valpha: GESVGLHLPTLSVQEGDNSIINCAYSNSASDYFIWYKQESGKGPQFIIDIRSNMDKRQGQRVTVLLNKTVKHLSLQIAATQPGDSAVYFCAESYGQKLLFARGTMLKVDL Vbeta: EAQVTQNPRYLITVTGKKLTVTCSQNMNHEYMSWYRQDPGLGLRQIYYSMNVEVTDKGDVPEGYKVSRKEKRNFPLILESPSPNQTSLYFCASSFWSAGELFFGEGSRLTVL |
| recognises | nwTCR-3173 (TCR, V domains shown) Valpha: SQQGEEDPQALSIQEGENATMNCSYKTSINNLQWYRQNSGRGLVHLILIRSNEREKHSGRLRVTLDTSKKSSSLLITASRAADTASYFCATYANDYKLSFGAGTTVTVRA Vbeta: EAQVTQNPRYLITVTGKKLTVTCSQNMNHEYMSWYRQDPGLGLRQIYYSMNVEVTDKGDVPEGYKVSRKEKRNFPLILESPSPNQTSLYFCASSAGTGGFVGYTFGSGTRLTVV |
| recognises | nwTCR-3125 (TCR, V domains shown) Valpha: QKEVEQNSGPLSVPEGAIASLNCTYSDRVSQSFFWYRQYSGKSPELIMSIYSNGDKEDGRFTAQLNKASQYVSLLIRDSQPSDSATYLCALVSGTYKYIFGTGTRLKVLA Vbeta: DTAVSQTPKYLVTQMGNDKSIKCEQNLGHDTMYWYKQDSKKFLKIMFSYNNKELIINETVPNRFSPKSPDKAHLNLHINSLELGDSAVYFCASSPGLAYEQYFGPGTRLTVT |
